{"source": "the supplement of paper PMC9732359", "note": "± gives the uncertainty stated by the source.", "data": [{"test": "protein stability index of a GFP-peptide fusion (yeast GPS) (PSI 1-4); higher = more stable; sorted into four equal gates, so the index is relative within each strain", "conditions": "pdr5∆", "procedure,_shortened": "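Yeast carrying a pooled library were grown to mid-log phase in leucine-free medium. Each library plasmid expresses Cherry and has a tiled 17-residue yeast protein peptide fused downstream of GFP. Cells were sorted into four equal gates by GFP/Cherry ratio, and plasmids from each gate were PCR-amplified, Illumina-sequenced and assigned to strains by barcode. Summing, across gates, the read frequency times the gate number gave each peptide's protein stability index.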", "values": [{"sequence": "KENEESLTPTQSDSAKV [PRP28]", "protein stability index": "3.35 ± 0.063"}, {"sequence": "KEQTIQLPSKFTCSCNS [RPN14]", "protein stability index": "2.53 ± 0.057"}, {"sequence": "KFGLLLQVSAQERKDFL [ECM29]", "protein stability index": "1.5 ± 0.056"}, {"sequence": "KFLNFRPPNGIKNFKSL [SSN2]", "protein stability index": "1.83 ± 0.04"}, {"sequence": "KFSERRKALPKEPKKLL [DSN1]", "protein stability index": "2.88 ± 0.081"}, {"sequence": "KGIAKEHAKWGPAAAIE [RPB3]", "protein stability index": "3.32 ± 0.1"}, {"sequence": "KGKDFEITAKEVYDFTH [FAS1]", "protein stability index": "3.23 ± 0.055"}, {"sequence": "KGLETIDNGAESSENEA [RPC53]", "protein stability index": "3.44 ± 0.13"}, {"sequence": "KGNVGFVFTNEPLTEIK [RPP0]", "protein stability index": "3.06 ± 0.1"}, {"sequence": "KGRYAPETGDHVVGRIA [RRP4]", "protein stability index": "3.21 ± 0.08"}, {"sequence": "KGVATTREKVLEDKLRA [RRP46]", "protein stability index": "3.16 ± 0.12"}, {"sequence": "KGVGRRYSNLVCKKADV [RPS18A]", "protein stability index": "2.37 ± 0.11"}, {"sequence": "KHDSLRYRLLSDVSDFE [RPN1]", "protein stability index": "3.04 ± 0.1"}, {"sequence": "KHFIQGGSFGNREEFIN [RPL7A]", "protein stability index": "1.86 ± 0.14"}, {"sequence": "KHSVTEYIFEAHEIIKR [CDC53]", "protein stability index": "1.87 ± 0.049"}, {"sequence": "KIDIIELQKSLSLEEVE [FAS1]", "protein stability index": "2.62 ± 0.15"}, {"sequence": "KILAGLHDTQIEGKLHM [RPN10]", "protein stability index": "3.46 ± 0.18"}, {"sequence": "KILRDNIQGITKPAIRR [HHF1]", "protein stability index": "3.33 ± 0.077"}, {"sequence": "KILSPTMYMEVYTAIYN [CDC53]", "protein stability index": "1.62 ± 0.061"}, {"sequence": "KILVLTGAGVSTSLGIP [SIR2]", "protein stability index": "2.34 ± 0.057"}, {"sequence": "KINPFGFEQVKIALGSP [RRI2]", "protein stability index": "2.91 ± 0.053"}, {"sequence": "KIPLPEVHDLIGFITSG [POP1]", "protein stability index": "1.66 ± 0.24"}, {"sequence": "KIQETELKIRSKTENVR [RPT6]", "protein stability index": "2.61 ± 0.088"}, {"sequence": "KIRITLTSTKVKQLENV [RPS20]", "protein stability index": "2.11 ± 0.12"}, {"sequence": "KIRPWRTFRLNECVCTP [RPO31]", "protein stability index": "1.99 ± 0.064"}, {"sequence": "KISEDPVKALNECIAST [SNF12]", "protein stability index": "2.86 ± 0.12"}, {"sequence": "KISGGNDKQGFPMKQGV [RPS6A]", "protein stability index": "2.83 ± 0.085"}, {"sequence": "KISLRDICLKLNLDSEQ [RPN3]", "protein stability index": "3.34 ± 0.093"}, {"sequence": "KITIGIQRTTESLILKW [RGR1]", "protein stability index": "1.6 ± 0.067"}, {"sequence": "KIYMLYSLQPSVDITGG [RPC34]", "protein stability index": "2.27 ± 0.15"}, {"sequence": "KKFDISNDNLDLISEIL [MED1]", "protein stability index": "2.89 ± 0.058"}, {"sequence": "KKHKQKKVLEIDFFKTD [BRN1]", "protein stability index": "2.67 ± 0.043"}, {"sequence": "KKIAQRERRAALTDFER [RPL14A]", "protein stability index": "3.46 ± 0.19"}, {"sequence": "KKIVDDTIMENPEPNKK [IRR1]", "protein stability index": "2.81 ± 0.054"}, {"sequence": "KKKDPVNQDKANNASQI [SNF12]", "protein stability index": "3.22 ± 0.11"}, {"sequence": "KKLSKKYNAFIASEVLI [RPL1A]", "protein stability index": "1.9 ± 0.025"}, {"sequence": "KKPRKPRQTKKAKAQAQ [PGD1]", "protein stability index": "3.48 ± 0.096"}, {"sequence": "KKQNLSSHQRVFKLSTN [SWP82]", "protein stability index": "2.08 ± 0.052"}, {"sequence": "KKQPSILVGGTLKDYQI [SNF2]", "protein stability index": "2.71 ± 0.099"}, {"sequence": "KKQVHVYRFVTENAIEE [ISW2]", "protein stability index": "1.77 ± 0.075"}, {"sequence": "KKRKAGRPRGRPKKVKL [SNF2]", "protein stability index": "3.09 ± 0.12"}, {"sequence": "KKRKNKSSGSSMATPTH [ROX3]", "protein stability index": "3.12 ± 0.077"}, {"sequence": "KKRREYFPEGYNNKVGV [SIR2]", "protein stability index": "3.56 ± 0.19"}, {"sequence": "KKRSKARKETYSSYIYK [HTB1]", "protein stability index": "2.9 ± 0.15"}, {"sequence": "KKSLEEDDEFEDFPIDT [SEM1]", "protein stability index": "3.02 ± 0.13"}, {"sequence": "KKSRLGNSFHLMRELLK [PRP8]", "protein stability index": "2.71 ± 0.046"}, {"sequence": "KKVNYKVTSYDITGDIR [ISW2]", "protein stability index": "2.51 ± 0.055"}, {"sequence": "KKVQALQSDKNFLDNCL [ITC1]", "protein stability index": "2.83 ± 0.05"}, {"sequence": "KKVVKKAFEERHQAGKN [RPL27A]", "protein stability index": "3.83 ± 0.22"}, {"sequence": "KLAAIVEIIDQKKVLID [RPL14A]", "protein stability index": "2.69 ± 0.088"}, {"sequence": "KLAKNLQIGDVVERHLE [RPO31]", "protein stability index": "3.49 ± 0.12"}, {"sequence": "KLASTLEKISSSNKDLE [SMC4]", "protein stability index": "2.68 ± 0.067"}, {"sequence": "KLDIISDPESERPAIEF [RPN14]", "protein stability index": "3.05 ± 0.05"}, {"sequence": "KLDKQINMADRSLGLQQ [POP6]", "protein stability index": "3.46 ± 0.21"}, {"sequence": "KLDQDDEIYIPINGNEA [CSI1]", "protein stability index": "3.46 ± 0.091"}, {"sequence": "KLEKLRNEKRMFLEFQS [SMC2]", "protein stability index": "3.3 ± 0.08"}, {"sequence": "KLGIESKQPNSAIRKCV [RPS23A]", "protein stability index": "3.25 ± 0.12"}, {"sequence": "KLHEFYLLISKENKKRK [IRR1]", "protein stability index": "2.65 ± 0.066"}, {"sequence": "KLKECPFDMGGYFIING [RPB2]", "protein stability index": "3.07 ± 0.082"}, {"sequence": "KLKNNASRSQLEKGEIE [YJL039C/NUP192]", "protein stability index": "2.98 ± 0.1"}, {"sequence": "KLLAISKFNNADDVFTG [RPC31]", "protein stability index": "2.9 ± 0.2"}, {"sequence": "KLLAKELEEQESESERK [SMC2]", "protein stability index": "3.23 ± 0.089"}, {"sequence": "KLLNDLALENGEITKTE [NUT1]", "protein stability index": "3.09 ± 0.22"}, {"sequence": "KLLTPQDMEAAKEVYKI [GAL11]", "protein stability index": "3.33 ± 0.14"}, {"sequence": "KLNTFENDLLQEFDSEL [SMC3]", "protein stability index": "3.3 ± 0.11"}, {"sequence": "KLPKVYKRSIVRNYKPL [SWI1]", "protein stability index": "2.99 ± 0.089"}, {"sequence": "KLRSELGYKDTSVIQDL [BRR2]", "protein stability index": "2.22 ± 0.083"}, {"sequence": "KLSKVQLYEDLCRYEDT [MED4]", "protein stability index": "3.29 ± 0.12"}, {"sequence": "KLSSAENANADLENKFN [YIL149C/MLP2]", "protein stability index": "3.31 ± 0.073"}, {"sequence": "KLTVCFDDILKVGAEMM [MED2]", "protein stability index": "1.95 ± 0.06"}, {"sequence": "KLWAEIIVKILYYRPHI [GRR1]", "protein stability index": "2.02 ± 0.071"}, {"sequence": "KLYKTPIPIPAFADRLG [PRE10]", "protein stability index": "1.29 ± 0.076"}, {"sequence": "KMENLMRLIKRVRAESL [YJL039C/NUP192]", "protein stability index": "1.19 ± 0.1"}, {"sequence": "KMLKIWTMAFRTMDDIK [ECM29]", "protein stability index": "1.76 ± 0.1"}, {"sequence": "KMLMNLHKEQWQSGLKM [RPN11]", "protein stability index": "2.05 ± 0.04"}, {"sequence": "KNGALVSNILSAFKFIH [YJL039C/NUP192]", "protein stability index": "1.65 ± 0.046"}, {"sequence": "KNHTHNLPGNITVVLGV [RRP4]", "protein stability index": "2.68 ± 0.084"}, {"sequence": "KNLIQLISLKLLTFEVT [SRB8]", "protein stability index": "1.19 ± 0.054"}, {"sequence": "KNLVKVLESRVNARDIP [CSN12]", "protein stability index": "1.94 ± 0.19"}, {"sequence": "KNNILGSNVLKSGKTIV [RRP43]", "protein stability index": "3.11 ± 0.044"}, {"sequence": "KNNLLIPDLSIQNDIYL [RPN12]", "protein stability index": "3.02 ± 0.038"}, {"sequence": "KNPRVTKEYLVQNLRSW [CSN9]", "protein stability index": "3 ± 0.3"}, {"sequence": "KNTQSPQTPLVEPVTER [SNU114]", "protein stability index": "2.87 ± 0.15"}, {"sequence": "KNYPEYFLKVTFLKYFG [IRR1]", "protein stability index": "1.54 ± 0.052"}, {"sequence": "KPALKVSKEGLYQLVDI [YMR129W/POM152]", "protein stability index": "3.1 ± 0.12"}, {"sequence": "KPGQNNRQQKKRRFDPS [RRP6]", "protein stability index": "2.99 ± 0.11"}, {"sequence": "KPGSKPEKTSTELVDGR [SIR3]", "protein stability index": "2.86 ± 0.16"}, {"sequence": "KPGSTVMLLGTPDANLI [UBP6]", "protein stability index": "3.58 ± 0.24"}, {"sequence": "KPLFDFGKTGDQKETKK [YOR098C/NUP1]", "protein stability index": "3.6 ± 0.19"}, {"sequence": "KPMTAYARADTHFLLNI [RRP6]", "protein stability index": "2.17 ± 0.047"}, {"sequence": "KPQLKFKSPIDNSESHP [RRP6]", "protein stability index": "3.06 ± 0.06"}, {"sequence": "KPSFSFPGKPVDVQAPT [YOR098C/NUP1]", "protein stability index": "2.88 ± 0.094"}, {"sequence": "KPTSHKQLQQPKSSPLK [SIR4]", "protein stability index": "3 ± 0.058"}, {"sequence": "KQERSKQERLKENEESL [PRP28]", "protein stability index": "3.62 ± 0.17"}, {"sequence": "KQFDSIFNSNKAKIIPG [SIR4]", "protein stability index": "2.33 ± 0.047"}, {"sequence": "KQQDAEELFTQLFHSMS [UBP6]", "protein stability index": "3.31 ± 0.088"}, {"sequence": "KQTGRDQMVVGWYHSHP [RPN11]", "protein stability index": "1.97 ± 0.096"}, {"sequence": "KQVLLRLNPYAKVFAAE [RPL4A]", "protein stability index": "2.6 ± 0.11"}, {"sequence": "KQVQISHHLKADTIDHD [YGL172W/NUP49]", "protein stability index": "3.09 ± 0.053"}]}]}
